In PMC7447783, “Cryo-EM structure of trimeric Mycobacterium smegmatis succinate dehydrogenase with a membrane-anchor SdhF” (Nature Communications, 2020):
Blank lines part the entries; values can stand above or below the molecule they belong to.

Columns and labels:
[1] = target: T1, Sdh2 (trimeric diheme succinate:menaquinone oxidoreductase, complex II) (Mycolicibacterium smegmatis, UniProt A0QT08+A0QT09+A0QT10); experiment: cryo-EM structure, […] Å; assay type: binding; details: co-purified; SdhA subunit
T1 construct: gene sdhA; SdhD with C-terminal 10xHis tag (pVV16) expressed in M. smegmatis; digitonin-solubilised, Ni-NTA and gel filtration; trimer of SdhABCDF; SdhF 3 kDa; with Succinate dehydrogenase iron-sulfur subunit; Succinate dehydrogenase membrane-anchor subunit SdhF

[2] = target: Mycobacterium smegmatis succinate dehydrogenase Sdh2 (trimer of SdhA-SdhB-SdhC-SdhD-SdhF protomers) (M. smegmatis) (UniProt A0QT09); experiment: cryo-EM structure; digitonin-solubilised Sdh2 complex co-purified from M. smegmatis membranes, 5 mg/mL, 20 mM MOPS pH 7.4, 100 mM NaCl, 0.1% digitonin; 2.8 Å
[3] = target: the molecule itself; experiment: as above

Molecule: Cc1cc2nc3c(=O)[nH]c(=O)nc-3n(C[C@H](O)[C@H](O)[C@H](O)COP(=O)(O)OP(=O)(O)OC[C@H]3O[C@@H](n4cnc5c(N)ncnc54)[C@H](O)[C@@H]3O)c2cc1C [FAD]
cryo-EM structure, 2.8 Å [1]: All the prosthetic groups (FAD, [2Fe-2S], [4Fe-4S], [3Fe-4S], and two b-type heme groups)

stoichiometry N [2]: 3
Molecule: Mycobacterium smegmatis succinate dehydrogenase Sdh2 (trimer of SdhA-SdhB-SdhC-SdhD-SdhF protomers) (from UniProt A0QT09 1-156) (complex)

B1: SdhD subunit of M. smegmatis Sdh2 (membrane-anchored protein) with C-terminal 10x His tag (natural protein)
chain: MSAPGAGESRLGRPAPVMEREHDRPAALDHPRAPRKPRGIPYFEKYAWLFMRFSGIALVFLALGHLFIMLMWQDGVYRIDFNYVAERWASPFWQIWDMALLWLAMIHGANGMRTIIGDYARKNVTKFWLNSLLLLATGFTLVLGSYVLVTFDANIS
notes: SdhD (Sdh2D), membrane-anchor subunit of M. smegmatis Sdh2 with three transmembrane helices (IV-VI), gene MSMEG_1671; also called Sdh2D; subunit D; source: M. smegmatis mc2 51, expressed from pVV16; digitonin extract of membranes, purified with the complex (Ni-NTA, Superdex 200); not shown: His10, C-terminal, kept
binding result [3]: binds
